From patent US5434135A, “Growth factor compositions, preparation and use” (Parikh; Indu, priority 1993, dated 1995)

What was measured:
[1] = tested on: trypsin; conditions: 3% trypsin, after one hour
[2] = at one hour
Method: At the indicated times aliquots were withdrawn and the amount of intact parent peptide was determined as the area under the curve (AUC) of the A214 (absorbance at 214 nanometers) chromatogram;

[3] = tested on: trypsin; assay: in vitro; conditions: 1% trypsin

CC[C@H](C)[C@@H]1NC(=O)[C@H](Cc2ccc(O)cc2)NC(=O)CNC(=O)[C@H](C(C)C)NC(=O)[C@H](C(C)C)NC(=O)[C@@H](NC(=O)[C@H](CC(N)=O)NC(=O)[C@@H]2CSSC[C@@H]3NC(=O)[C@H](Cc4ccc(O)cc4)NC(=O)CNC(=O)[C@H](CC(=O)O)NC(=O)[C@H](Cc4c[nH]cn4)NC(=O)[C@H](CO)NC(=O)[C@H](CC(C)C)NC(=O)[C@@H]4CCCN4C(=O)[C@@H](NC(=O)[C@H](CCC(=O)O)NC(=O)[C@H](CO)NC(=O)[C@H](CC(=O)O)NC(=O)[C@H](CO)NC(=O)[C@@H](N)CC(N)=O)CSSC[C@H](NC(=O)[C@H](C(C)C)NC(=O)CNC(=O)[C@H](CC(=O)O)NC(=O)[C@H](Cc4c[nH]cn4)NC(=O)[C@H](CC(C)C)NC3=O)C(=O)N[C@@H](CCSC)C(=O)N[C@@H](Cc3ccc(O)cc3)C(=O)N[C@@H]([C@@H](C)CC)C(=O)N[C@@H](CCC(=O)O)C(=O)N[C@@H](C)C(=O)N[C@@H](CC(C)C)C(=O)N[C@@H](CC(=O)O)C(=O)N[C@@H](CCCCN)C(=O)N[C@@H](Cc3ccc(O)cc3)C(=O)N[C@@H](C)C(=O)N2)CSSC[C@@H](C(=O)N[C@@H](CCC(N)=O)C(=O)N[C@@H](Cc2ccc(O)cc2)C(=O)N[C@@H](CCCNC(=N)N)C(=O)N[C@@H](CC(=O)O)C(=O)N[C@@H](CC(C)C)C(=O)N[C@@H](CCCCN)C(=O)N[C@@H](Cc2c[nH]c3ccccc23)C(=O)N[C@@H](Cc2c[nH]c3ccccc23)C(=O)N[C@@H](CCC(=O)O)C(=O)N[C@@H](CC(C)C)C(=O)N[C@@H](CCCNC(=N)N)C(=O)O)NC(=O)[C@H](CCCNC(=N)N)NC(=O)[C@H](CCC(=O)O)NC(=O)CNC1=O [hEGF1-53]
degradation in trypsin [1]: 90-100%
degradation in gastric fluid [2]: approaching almost complete degradation
metabolised at 1 h [3]: ~50%
